Data taken from patent US20250243286A1 (SIXPEAKS BIO, published 2025).
Where a chain is given by its changes, count along the chain named. Numbers in names are those of the source.

B1: Antibody Biiramooscht (antibody, V domains shown)
VH: QVQLVQSGAEVKKPGASVKVSCKASGYTFTSSYINWVRQAPGQGLEWMGTINPVSGSTSYAQKFQGRVTMTRDTSISTAYMELSRLRSDDTAVYYCARGGWFDYWGQGTLVTVSS
VL: QSALTQPASVSGSPGQSITISCTGTSSDVGSYNYVNWYQQHPGKAPKLMIYGVSKRESGVSNRFSGSKSGNTASLTISGLQAEDEADYYCGTFAGGAYYGVFGGGTKLTVL
notes: full-length IgG
B2: Antibody Springerle (antibody, V domains shown)
VH: B1 VH
VL: B1 VL with A97S, Y99R
notes: full-length IgG
B3: Ochsamaulsalat Fab (Fab, V domains shown)
VH: B1 VH with P53A
VL: B1 VL with Y32R, A97D
notes: Fab
B4: Ofaschlupfer, Mouse IgG2a-PALALA (antibody, V domains shown)
VH: B1 VH with A16S, P53A, M70I, R72A, I76T, R85S, D89E
VL: B1 VL with A8R, I18V, Y32K, S61P, N62D, A97K
notes: mouse IgG2a constant region with PALALA
B5: Ofaschlupfer, Human IgG1-PALALA (antibody, V domains shown)
VH: B1 VH with A16S, P53A, M70I, R72A, I76T, R85S, D89E
VL: B1 VL with A8R, I18V, Y32K, S61P, N62D, A97K
notes: human IgG1 with PA-LALA (L234A/L235A/P329A), EU numbering
B6: Schwardamaga, Mouse IgG2a-PALALA (antibody, V domains shown)
VH: B1 VH with A16S, P53A, M70I, R72A, I76T, R85S, D89E
VL: B1 VL with A8R, I18V, Y32A, L48P, K55R, E57P, S61P, N62D, A97K
notes: as for B4
B7: Soidawürstle, Human IgG1-PALALA-YTE (antibody, V domains shown)
VH: B1 VH with K12R, A16S, M70I, R72A, I76T, R85S, D89E
VL: B1 VL with A8R, I18V, Y34R, S61P, N62D, A97R
notes: human IgG1 with PA-LALA (L234A/L235A/P329A) and YTE (M252Y/S254T/T256E), EU numbering
B8: Schwardamaga, Human IgG1-PALALA-YTE (antibody, V domains shown)
VH: B1 VH with A16S, P53A, M70I, R72A, I76T, R85S, D89E
VL: B1 VL with A8R, I18V, Y32A, L48P, K55R, E57P, S61P, N62D, A97K
notes: as for B7
B9: Soidawürstle, Mouse IgG2a-PALALA (antibody, V domains shown)
VH: B1 VH with K12R, A16S, M70I, R72A, I76T, R85S, D89E
VL: B1 VL with A8R, I18V, Y34R, S61P, N62D, A97R
notes: as for B4
B10: Schwardamaga, Human IgG1-PALALA (antibody, V domains shown)
VH: B1 VH with A16S, P53A, M70I, R72A, I76T, R85S, D89E
VL: B1 VL with A8R, I18V, Y32A, L48P, K55R, E57P, S61P, N62D, A97K
notes: as for B5
B11: Soidawürstle, Human IgG1-PALALA (antibody, V domains shown)
VH: B1 VH with K12R, A16S, M70I, R72A, I76T, R85S, D89E
VL: B1 VL with A8R, I18V, Y34R, S61P, N62D, A97R
notes: as for B5
B12: Antibody Bäratatza (antibody, V domains shown)
VH: B1 VH with P53A, G99S
VL: B1 VL with R56Q, E57Q, A97S
notes: full-length IgG
B13: Antibody Dürrfloischeggla (antibody, V domains shown)
VH: B1 VH with P53A, T74V
VL: B1 VL with Y34V, Y51S, A97K
notes: full-length IgG
B14: Antibody Ochsauga (antibody, V domains shown)
VH: B1 VH with P53A, Y104V
VL: B1 VL with V29I, A97S
notes: full-length IgG
B15: Antibody Floischbrühsupp (antibody, V domains shown)
VH: B1 VH with P53A
VL: B1 VL with Y32F, Y51K
notes: full-length IgG
B16: Antibody Hasaschlegel (antibody, V domains shown)
VH: B1 VH with P53A
VL: B1 VL with N33D, Y51H, A97S
notes: full-length IgG
B17: Antibody Pfitzauf (antibody, V domains shown)
VH: B1 VH
VL: B1 VL with Y32G, A97K
notes: full-length IgG
B18: Antibody Hutzelbrot (antibody, V domains shown)
VH: B1 VH with P53A
VL: B1 VL with Y32K, E57Q, A97D
notes: full-length IgG
B19: Antibody Bäradreck (antibody, V domains shown)
VH: B1 VH with A16S, M70I, R72A, I76T, R85S, D89E
VL: B1 VL with A8R, I18V, E57P, S61P, N62D, A97S
notes: full-length IgG
B20: Bäradreck Fab (Fab, V domains shown)
VH: B1 VH with A16S, M70I, R72A, I76T, R85S, D89E
VL: B1 VL with A8R, I18V, E57P, S61P, N62D, A97S
notes: Fab
B21: Bebballesgmias Fab (Fab, V domains shown)
VH: B1 VH with A16S, T28K, M70I, R72A, I76T, R85S, D89E
VL: B1 VL with A8R, I18V, E57P, S58R, S61P, N62D, A97S
notes: Fab

biological target: T1, human ActRIIA (human, UniProt P27037 20-135, limits assumed); assay: MSD-SET
T1 construct: antigen in MSD-SET; also called ACVR2A; ActR2A
T1 sequence (P27037 20-135 limits assumed): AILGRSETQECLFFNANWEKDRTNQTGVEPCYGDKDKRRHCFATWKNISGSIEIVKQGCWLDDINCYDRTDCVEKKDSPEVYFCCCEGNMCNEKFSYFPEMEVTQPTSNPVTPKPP

Row | Binder | Fold Difference to bimagrumab [fold] | Kd [nM]
1 | B1 | 6.4 | 0.028
2 | B2 | 7.3 | 0.027

biological target: T2, ActRIIA and ActRIIB (on TGFB/SMAD SBE Reporter HEK293 cells) (human); assay: cell-based or functional assay

Row | Binder | IC50, Activin SMAD RGA [nM] | IC50, Myostatin SMAD RGA [nM]
3 | B1 | 0.21 | 0.27
4 | B3 | 1.5 | 2.32

biological target: T3, human ActRIIB (human, UniProt Q13705 19-137, limits assumed); assay: MSD-SET
T3 construct: antigen in MSD-SET; also called ACVR2B; ActR2B
T3 sequence: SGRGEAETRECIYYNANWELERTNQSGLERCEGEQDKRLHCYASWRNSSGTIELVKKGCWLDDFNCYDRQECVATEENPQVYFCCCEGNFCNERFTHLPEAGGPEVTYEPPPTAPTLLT

Row | Binder | Kd [nM]
5 | B4 | 0.004
6 | B5 | 0.003
7 | B6 | 0.016
8 | B7 | 0.005
9 | B8 | 0.013
10 | B9 | 0.003
11 | B10 | 0.011
12 | B11 | 0.006

biological target: T1, human ActRIIA; assay: MSD-SET; remark: another data set of the same source

Row | Binder | Kd [nM]
13 | B6 | 0.039
14 | B7 | 0.034
15 | B8 | 0.04
16 | B9 | 0.027
17 | B10 | 0.036
18 | B11 | 0.025

biological target: T2, ActRIIA and ActRIIB (on TGFB/SMAD SBE …); assay: cell-based or functional assay; remark: another data set of the same source

Row | Binder | IC50 [nM] (assay not given) | IC50 fold difference to bimagrumab (assay not given) [fold] | IC90 [nM] (assay not given) | IC90 fold difference to bimagrumab (assay not given) [fold]
19 | B12 | 0.105 | 2.8 | 2.77 | 2.4

biological target: T3, human ActRIIB; assay: MSD-SET; remark: another data set of the same source

Row | Binder | Kd [nM]
20 | B1 | 0.005
21 | B3 | 0.062

biological target: T1, human ActRIIA; assay: MSD-SET; remark: another data set of the same source

Row | Binder | Kd [nM]
22 | B1 | 0.028
23 | B3 | 0.055

biological target: T3, human ActRIIB; assay: MSD-SET; remark: another data set of the same source

Row | Binder | Kd [nM]
24 | B1 | 0.005
25 | B13 | 0.009
26 | B12 | 0.005
27 | B14 | 0.006
28 | B15 | 0.01
29 | B16 | 0.013
30 | B17 | 0.008
31 | B18 | 0.01

biological target: T1, human ActRIIA; assay: MSD-SET; remark: another data set of the same source

Row | Binder | Kd [nM]
32 | B1 | 0.028
33 | B13 | 0.033
34 | B12 | 0.023
35 | B14 | 0.016
36 | B2 | 0.027
37 | B15 | 0.023
38 | B16 | 0.018
39 | B17 | 0.052
40 | B18 | 0.021

biological target: T2, ActRIIA and ActRIIB (on TGFB/SMAD SBE …); assay: cell-based or functional assay; remark: another data set of the same source

Row | Binder | IC50, Activin SMAD RGA [nM] | IC50, Myostatin SMAD RGA [nM] | IC50 [nM] (assay not given) | IC50 fold difference to bimagrumab (assay not given) [fold] | IC90, Activin SMAD RGA [nM] | IC90, Myostatin SMAD RGA [nM] | IC90 [nM] (assay not given) | IC90 fold difference to bimagrumab (assay not given) [fold] | IC50, myostatin inhibition (SMAD RGA) [nM]
41 | B1 | 0.161 | 0.222 | 0.086 | 6.02 | 1.58 | 2.78 | 1.16 | 6.98 | 
42 | B13 | 0.423 | 0.679 |  |  | 4.86 | 6.09 |  |  | 
43 | B12 | 0.138 | 0.0537 |  |  | 2.14 | 0.491 |  |  | 
44 | B14 | 0.238 | 0.327 |  |  | 3.15 | 2.21 |  |  | 
45 | B2 | 0.094 |  | 0.0946 | 5.46 | 1.38 |  | 1.5 | 5.4 | 
46 | B15 | 0.324 | 0.394 |  |  | 4.69 | 2.62 |  |  | 
47 | B16 | 0.722 | 0.977 |  |  | 5.56 | 6.59 |  |  | 
48 | B17 | 0.231 | 0.0984 |  |  | 3.03 | 1.35 |  |  | 
49 | B19 | 0.257 | 0.255 |  |  | 4.99 | 4.05 |  |  | 0.255
50 | B18 | 0.422 | 0.73 |  |  | 3.62 | 3.06 |  |  | 

biological target: T1, human ActRIIA; assay: MSD-SET; remark: another data set of the same source

Row | Binder | Fold Difference to bimagrumab [fold] | Kd [nM]
51 | B12 | 49.5 | 0.023

biological target: T3, human ActRIIB; assay: MSD-SET, preliminary

Row | Binder | Kd [nM]
52 | B19 | 0.0638
53 | B20 | 0.0563
54 | B21 | 0.0251

biological target: T1, human ActRIIA; assay: MSD-SET, preliminary

Row | Binder | Kd [nM]
55 | B19 | 0.112
56 | B20 | 0.655
57 | B21 | 0.285

biological target: T3, human ActRIIB; assay: MSD-SET; remark: another data set of the same source

Row | Binder | Kd [nM]
58 | B19 | 0.0638
59 | B20 | 0.0014

biological target: T1, human ActRIIA; assay: MSD-SET; remark: another data set of the same source

Row | Binder | Kd [nM]
60 | B19 | 0.112
61 | B20 | 0.655
62 | B21 | 0.285
